Data published in article PMC6878762 (Nature, 2012).

B1: Dom34 (Pelota of Saccharomyces cerevisiae) (natural protein, S. cerevisiae, UniProt P33309 1-386, looked up)
chain: MKVISLKKDSFNKGGAVITLLPEDKEDLFTVYQIVDKDDELIFKKKFTSKLDEAGKKKSTDLVKLKIKVISEDFDMKDEYLKYKGVTVTDESGASNVDIPVGKYLSFTLDYVYPFTIIKQNFNKFMQKLLNEACNIEYKSDTAAVVLQEGIAHVCLVTSSSTILKQKIEYSMPKKKRTTDVLKFDEKTEKFYKAIYSAMKKDLNFDKLKTIILCSPGFYAKILMDKIFQYAEEEHNKKILDNKGMFFIAHCSTGYLQGINEVLKNPLYASKLQDTKYSKEIMVMDEFLLHLNKDDDKAWYGEKEVVKAAEYGAISYLLLTDKVLHSDNIAQREEYLKLMDSVESNGGKALVLSTLHSLGEELDQLTGIACILKYPLPDLDEDDGEE

Tests used:
[1] = molecular target: B1; test: cryo-EM structure
[2] = molecular target: Rli1 (ABCE1 of Saccharomyces cerevisiae) (S. cerevisiae, UniProt Q03195 1-608); test: cryo-EM structure
Rli1 (ABCE1 of Saccharomyces cerevisiae), sequence (Q03195 whole entry): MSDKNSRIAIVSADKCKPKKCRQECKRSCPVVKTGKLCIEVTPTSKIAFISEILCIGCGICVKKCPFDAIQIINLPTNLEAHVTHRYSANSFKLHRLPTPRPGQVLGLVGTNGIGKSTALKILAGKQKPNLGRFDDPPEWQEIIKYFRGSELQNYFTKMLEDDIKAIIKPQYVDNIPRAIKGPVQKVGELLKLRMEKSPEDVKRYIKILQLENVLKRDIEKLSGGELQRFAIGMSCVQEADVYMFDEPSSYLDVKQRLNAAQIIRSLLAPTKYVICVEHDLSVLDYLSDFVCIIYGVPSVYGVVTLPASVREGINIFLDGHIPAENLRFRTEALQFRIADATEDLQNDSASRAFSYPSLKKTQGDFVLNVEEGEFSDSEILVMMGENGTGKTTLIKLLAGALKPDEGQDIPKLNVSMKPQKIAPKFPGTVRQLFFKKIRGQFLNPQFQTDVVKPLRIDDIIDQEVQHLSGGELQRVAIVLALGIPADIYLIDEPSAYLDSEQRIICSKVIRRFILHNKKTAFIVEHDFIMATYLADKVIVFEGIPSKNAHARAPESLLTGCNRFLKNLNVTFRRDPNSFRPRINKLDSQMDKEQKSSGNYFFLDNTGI

| Binder | binding result [1] | binding result [2] |
| --- | --- | --- |
| ribosomal protein rpS30 (yeast 40S subunit) (natural protein, UniProt P0CX33 1-63, looked up) MAKVHGSLARAGKVKSQTPKVEKTEKPKKPKGRAYKRLLYTRRFVNVTLVNGKRRMNPGPSVQ | binds | – |
| ribosomal protein rpP0 (yeast 60S subunit) (natural protein, UniProt P05317 1-312, looked up) MGGIREKKAEYFAKLREYLEEYKSLFVVGVDNVSSQQMHEVRKELRGRAVVLMGKNTMVRRAIRGFLSDLPDFEKLLPFVKGNVGFVFTNEPLTEIKNVIVSNRVAAPARAGAVAPEDIWVRAVNTGMEPGKTSFFQALGVPTKIARGTIEIVSDVKVVDAGNKVGQSEASLLNLLNISPFTFGLTVVQVYDNGQVFPSSILDITDEELVSHFVSAVSTIASISLAIGYPTLPSVGHTLINNYKDLLAVAIAASYHYPEIEDLVDRIENPEKYAAAAPAATSAASGDAAPAEEAAAEEEEESDDDMGFGLFD | – | binds |
| B1 | – | binds |
